Entries after “also recorded” stand apart in the source; their conditions may differ. Where no end group is shown, it is not given here.
Legend:
Streptavidin [1] = biological target: T1, Streptavidin (Streptomyces avidinii, UniProt P22629); assay: Recombinant peptide chip screen with HRP- or Europium-labeled Streptavidin; assay type: binding; settings: for effect of dimerisation on chip signal/affinity: 12 glycine linker spaced dimer versus monomer, HRP-Streptavidin signal
T1 construct: purchased ForteBio
Procedure: Competent E. coli One Shot® BL21 Star™ (DE3) cells (Thermo Fisher Scientific) carrying the gene for T7 RNA polymerase under control of isopropyl β-D-1-thiogalactopyranoside (IPTG)-inducible lacUV5 promotor were transformed with respective expression libraries, and plated onto large square Q-trays. Individual colonies were robotically picked (QPix2^xt, Genetix) into suitable 384 well plates containing liquid LB medium supplemented with 100 μg/ml ampicillin, and cultivated overnight at 37 °C. Alternative route was to directly split appropriately diluted (as confirmed by plating onto LB-amp agar plates) transformation reactions (after 1 h recovery in antibiotics-free SOC medium) into 384 well plates via a programmable Flexdrop Precision Reagent Dispenser (Perkin Elmer). The next day, clones were robotically arrayed onto a 0.45 μm pore size PROTRAN™ nitrocellulose sheet (Whatman) cut in the form of the original masterplate, applying a 1 × 1, 5 × 1, 5 × 5, or 10 × 10 pattern (such that each clone or pool is gridded in 1, 5 or 25 or 100 replicates each). Following a 6 to 8 h incubation interval on top of solid LB at 30 °C, peptide expression was achieved by transferring these membrane-imprinted clones onto LB agar plates supplemented with 1 mM IPTG, followed by a 2 h incubation interval at 37 °C. Cells were then directly lysed via transfer into a Tris-buffered saline (TBS) solution containing 0.05% Tween-20 and 3% blotting-grade milk powder. Membranes were in refined dot-blot reminiscent procedure challenged with (horseradish peroxidase) HRP- or Europium labeled Streptavidin (in 1:1000 to 1:5000 dilution in TBS-0.05% Tween) for 1 h at RT, washed 3 times in TBS-0.05% Tween, and scanned with either a ChemiDoc imaging system (Quantity One® analysis software, BioRad) after exposure to Immobilon™ Western chemiluminescent substrate (Millipore, Merck), or directly with a prototypic SpectraMax® Paradigm® multi-mode detection Platform (ScanLater™ Western Blot Detection Cartridge, Molecular Devices).
Screening parameters were first of all optimized: signal-to-background ratios and realizable detection limits were assessed by analyzing the associations between published Strep-tagI and II peptides (as well as 12G linker spaced dimer derived thereof) and either commercially available HRP- or fluorescence labeled Streptavidin. […] We next further optimized E. coli growth times (from 0 to 24 h at 2 different temperatures), induction intervals, critical cell densities required, printing conditions, lysis and detection conditions, etc. (Fig. 2).

Streptavidin [2] = biological target: T1, Streptavidin; set-up: method as in 4 sources, one per row (each row's own in cited_ref): ref see discussion section ([26], [33], [34]) ||| ref [35], [36] = [35]; PMID 26406477; doi:10.1371/journal.pone.0139137; 35. Fogen D Engineering Streptavidin and a Streptavidin-Binding Peptide with Infinite Binding Affinity and Reversible Binding Capability: Purification of a Tagged Recombinant Protein to High Purity vi || [36]; PMID 11722181; doi:10.1006/prep.2001.1515; 36. Keefe AD One-step purification of recombinant proteins using a nanomolar-affinity streptavidin-binding peptide, the SBP-Tag Protein Expr Purif 2001 23 3 440 446 10.1006/prep.2001.1515 11722181 ||| ref [37] = [37]; PMID 14680960; doi:10.1016/j.pep.2003.08.014; 37. Lamla T Erdmann VA The Nano-tag, a streptavidin-binding peptide for the purification and detection of recombinant proteins Protein Expr Purif 2004 33 1 39 47 10.1016/j.pep.2003.08.014 14680960 ||| ref [26], [33], [34] = [26]; PMID 8636976; doi:10.1006/jmbi.1996.0061; 26. Schmidt TG Molecular interaction between the Strep-tag affinity peptide and its cognate target, streptavidin J Mol Biol 1996 255 5 753 766 10.1006/jmbi.1996.0061 8636976 || [33]; PMID 10796988; doi:10.1016/S1050-3862(99)00033-9; 33. Skerra A Schmidt TG Applications of a peptide ligand for streptavidin: the Strep-tag Biomol Eng 1999 16 1–4 79 86 10.1016/S1050-3862(99)00033-9 10796988 || [34]; PMID 11910031; doi:10.1110/ps.4150102; 34. Korndorfer IP Skerra A Improved affinity of engineered streptavidin for the Strep-tag II peptide is due to a fixed open conformation of the lid-like loop at the binding site Protein Sci 2002 11 4; settings: equilibrium dissociation constant; ref [35], [36]; read-out: literature KD of SBP-tag, Streptavidin; cited from earlier work

T1 sequence (P22629 25-183): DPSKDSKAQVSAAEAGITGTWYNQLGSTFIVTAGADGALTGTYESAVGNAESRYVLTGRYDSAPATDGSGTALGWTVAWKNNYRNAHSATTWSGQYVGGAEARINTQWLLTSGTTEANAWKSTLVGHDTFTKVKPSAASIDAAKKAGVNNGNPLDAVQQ

Substance	effect of dimerisation on chip signal/affinity (Streptavidin [1])	Kd (Streptavidin [2])	binder strength on test peptide chip (Streptavidin [1]; in comparison to negative control, HRP- or fluorescence-labeled Streptavidin)
F14.5 dimer: 12G–spaced dimeric F14.5 (CSGSYGSCGGGGGGGGGGGGCSGSYGSC; cysteine pairing not given here; also: fused to GST, end not given here)	remained fairly constant; also recorded: could not increase affinity by linear dimerization		
B5 dimer: B5 dimerized, spaced by an analogous 12 glycine linker (VSHPQAPFGGGGGGGGGGGGVSHPQAPF; not fully specified)	could not increase affinity by linear dimerization		
SBP-tag: 38 AA encompassing SBP-tag		2.5 nM	
Dim12G: 12 glycine (G) linker spaced dimer resembling a published Twin-conformation; fusion of Strep-tagI and Strep-tagII monomers [reference compound]	performs superior in comparison to a single monomer		higher affinity
